From patent US20230203146A1 (Boehringer Ingelheim, published 2023)
Residue numbers refer to the chain shown, from its start. Names and notes keep the numbering of the source. Where two headings read alike, the source gives them in different places.

What was measured:
[1] = target: T1, recombinant human Ang2-FLD (human, UniProt O15123 275-496, limits assumed); assay: ProteOn off-rate assay, periplasmic extracts over coated human Ang2-FLD
T1 construct: domain: FLD; not used
T1 sequence (looked up): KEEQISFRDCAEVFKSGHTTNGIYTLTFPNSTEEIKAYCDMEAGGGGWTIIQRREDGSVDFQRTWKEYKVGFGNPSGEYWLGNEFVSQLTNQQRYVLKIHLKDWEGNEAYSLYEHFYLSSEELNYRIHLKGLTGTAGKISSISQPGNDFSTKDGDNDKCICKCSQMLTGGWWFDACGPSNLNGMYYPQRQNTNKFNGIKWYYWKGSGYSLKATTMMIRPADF
Procedure: In a first cycle, amino acid substitutions are introduced randomly in both framework (FW) and complementary determining regions (CDR) using the error-prone PCR method. […] After a polish step, PCR products are inserted via unique restriction sites into a vector designed to facilitate phage display of the VHH library. […] Periplasmic extract of affinity matured clones is diluted 1:10 and injected across the “analyte channels” A1-A6.

[2] = target: T2, FLAG-tagged cynomolgus Ang2 (cynomolgus, UniProt O15123 19-496 (human entry), limits assumed); assay: competition ELISA: FLAG-cAng2 binding to coated cTie2-Fc
T2 construct: N-terminally FLAG-tagged, conditioned medium of HEK293T cells; also called cAng2; FLAG-cAng2
T2 chain: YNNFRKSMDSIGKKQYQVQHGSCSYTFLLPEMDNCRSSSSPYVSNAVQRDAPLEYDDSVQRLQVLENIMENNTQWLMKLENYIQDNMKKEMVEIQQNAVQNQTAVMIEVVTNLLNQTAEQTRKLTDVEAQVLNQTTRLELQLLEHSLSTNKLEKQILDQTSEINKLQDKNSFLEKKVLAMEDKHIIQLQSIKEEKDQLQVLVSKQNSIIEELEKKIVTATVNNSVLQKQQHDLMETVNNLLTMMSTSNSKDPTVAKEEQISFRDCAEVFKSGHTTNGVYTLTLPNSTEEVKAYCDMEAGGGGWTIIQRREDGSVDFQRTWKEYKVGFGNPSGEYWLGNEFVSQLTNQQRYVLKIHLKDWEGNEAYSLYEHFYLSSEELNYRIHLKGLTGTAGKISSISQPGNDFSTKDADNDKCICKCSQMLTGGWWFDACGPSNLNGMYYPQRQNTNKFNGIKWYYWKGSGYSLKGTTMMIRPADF
Procedure: (§1) In brief, 2 μg/mL of recombinant mouse Tie2-Fc or cyno Tie2-Fc is coated overnight at 4° C. in a 96-well MaxiSorp plate (Nunc, Wiesbaden, Germany). Coated wells are blocked with a 1% casein solution.

[3] = target: T3, FLAG-tagged mouse Ang2 (mouse, UniProt O35608 19-496); assay: competition ELISA: FLAG-mAng2 binding to coated mTie2-Fc
T3 construct: N-terminally FLAG-tagged, conditioned medium of HEK293T cells; also called mAng2; FLAG-mAng2
T3 sequence: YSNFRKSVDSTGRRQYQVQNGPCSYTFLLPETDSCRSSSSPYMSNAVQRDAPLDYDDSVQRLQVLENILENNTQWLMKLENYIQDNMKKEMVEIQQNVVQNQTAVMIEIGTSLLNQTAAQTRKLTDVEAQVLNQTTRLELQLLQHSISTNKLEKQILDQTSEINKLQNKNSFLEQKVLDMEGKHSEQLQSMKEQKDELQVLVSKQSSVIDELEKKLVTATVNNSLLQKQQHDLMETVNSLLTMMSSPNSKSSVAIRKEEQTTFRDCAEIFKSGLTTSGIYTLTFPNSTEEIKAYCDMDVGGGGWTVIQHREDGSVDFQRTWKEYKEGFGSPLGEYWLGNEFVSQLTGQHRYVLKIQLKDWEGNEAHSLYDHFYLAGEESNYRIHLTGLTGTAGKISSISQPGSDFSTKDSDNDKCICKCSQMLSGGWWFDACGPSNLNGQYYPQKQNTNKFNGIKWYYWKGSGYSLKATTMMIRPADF
Procedure: as §1

[4] = target: T3, FLAG-tagged mouse Ang2; assay: as above; remark: listed apart in the source
Procedure: as §1

[5] = target: T2, FLAG-tagged cynomolgus Ang2; assay: competition ELISA: FLAG-cAng2 binding to coated cTie2-Fc
Procedure: as §1

[6] = target: T4, recombinant human Ang2-FLD (human, UniProt O15123 275-496, limits assumed); assay: SPR (Biacore T100), VHH immobilized, Ang2-FLD injected
T4 construct: domain: FLD
T4 sequence (looked up): T1 sequence (looked up)

[7] = target: T5, recombinant mouse Ang2-FLD (mouse, UniProt O35608 275-496, limits assumed); assay: as above
T5 construct: domain: FLD
T5 sequence (looked up): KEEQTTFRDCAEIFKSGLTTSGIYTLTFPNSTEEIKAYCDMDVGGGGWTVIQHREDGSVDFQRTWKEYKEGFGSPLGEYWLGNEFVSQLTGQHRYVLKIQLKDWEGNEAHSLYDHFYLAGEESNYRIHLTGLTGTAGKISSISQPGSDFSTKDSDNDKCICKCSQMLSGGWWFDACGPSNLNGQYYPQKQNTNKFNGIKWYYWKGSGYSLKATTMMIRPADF

[8] = target: T6, recombinant cynomolgus Ang2-FLD (cynomolgus, UniProt A0A2K5VNX6 275-496); assay: as above
T6 construct: domain: FLD; also called cyno Ang2-FLD
T6 sequence: T1 sequence (looked up) with E2G, I23V, F28L, I35V, G154A, A212G, D221G

[9] = target: T7, recombinant rat Ang2-FLD (rat, UniProt O35462 275-496, limits assumed); assay: as above
T7 construct: domain: FLD
T7 sequence (looked up): T5 sequence (looked up) with Q4K, I35V, V43M, G91S, Q92G, N107S, D114E, A119S, S168T

[10] = target: T8, N-terminally FLAG-tagged cynomolgus Ang2 (HEK293T conditioned medium) (cynomolgus, UniProt O15123 19-496 (human entry), limits assumed); assay: competition ELISA, FLAG-cAng2 on coated cTie2-Fc
T8 construct: may be a nucleotide entry; also called cAng2; FLAG-cAng2
T8 chain: T2 chain
Procedure: as §1

[11] = target: T9, FLAG-tagged recombinant human Ang1 (Alexis Biochemicals) (human, UniProt Q15389 20-498, limits assumed); assay: competition ELISA, FLAG-hAng1 (0.02 nM) on coated hTie2-Fc
T9 construct: Bought reagent; also called hAng1; FLAG-hAng1
T9 sequence (looked up): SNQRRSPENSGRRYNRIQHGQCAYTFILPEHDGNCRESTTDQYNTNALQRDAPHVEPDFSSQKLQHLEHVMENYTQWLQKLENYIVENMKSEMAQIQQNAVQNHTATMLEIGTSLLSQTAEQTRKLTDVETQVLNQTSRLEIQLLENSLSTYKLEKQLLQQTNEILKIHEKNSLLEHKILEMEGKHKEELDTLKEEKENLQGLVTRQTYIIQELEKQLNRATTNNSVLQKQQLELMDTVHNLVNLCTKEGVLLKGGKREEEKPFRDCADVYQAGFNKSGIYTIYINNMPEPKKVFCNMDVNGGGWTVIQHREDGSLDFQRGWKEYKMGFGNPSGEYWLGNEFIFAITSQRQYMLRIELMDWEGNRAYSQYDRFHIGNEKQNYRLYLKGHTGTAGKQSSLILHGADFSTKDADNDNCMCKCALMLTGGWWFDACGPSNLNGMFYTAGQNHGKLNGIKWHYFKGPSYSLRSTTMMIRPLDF
Procedure: (§2) In brief, 2 μg/mL of recombinant human Tie2-Fc (R&D Systems, Minneapolis, Minn., USA) is coated overnight at 4° C. in a 96-well MaxiSorp plate (Nunc, Wiesbaden, Germany). Coated wells are blocked with a 1% casein solution.

[12] = target: T1, recombinant human Ang2-FLD; assay: SPR (Biacore T100), binder on CM5 chip, Ang2-FLD as analyte
Summary of the method: (§3)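 Binders were immobilized by amine coupling onto a CM5 sensor chip, and Ang2-FLD from each species was passed over as analyte at 45 μL/min, with 2 min association and 20 min dissociation. Surfaces were regenerated between injections using a 10 sec 25 mM NaOH pulse and 60 sec stabilization. Rate constants came from a 1:1 Langmuir fit, and KD was derived from them.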

[13] = target: T10, recombinant cynomolgus Ang2-FLD (cynomolgus); assay: as above
T10 construct: domain: FLD; also called cyno Ang2-FLD
Summary of the method: as §3

[14] = target: T11, recombinant mouse Ang2-FLD (mouse, UniProt O35608 275-496, limits assumed); assay: as above
T11 construct: domain: FLD
T11 sequence (looked up): T5 sequence (looked up)
Summary of the method: as §3

[15] = target: T9, FLAG-tagged recombinant human Ang1 …; assay: ratio of IC50 in hAng1/hTie2 ELISA to IC50 in hAng2/hTie2 ELISA
Procedure: In brief, 2 μg/mL of Tie2/Fc chimera (R&D Systems, Minneapolis, Minn., USA) is coated in a 96-well MaxiSorp plate (Nunc, Wiesbaden, Germany).
as §2

[16] = target: T12, N-terminally FLAG-tagged mouse Ang2 (HEK293T conditioned medium) (mouse, UniProt O35608 19-496); assay: competition ELISA, FLAG-mAng2 on coated mTie2-Fc
T12 construct: may be a nucleotide entry; also called mAng2; FLAG-mAng2
T12 sequence: T3 sequence
Procedure: as §1

[17] = target: T12, N-terminally FLAG-tagged mouse Ang2 …; assay: competition ELISA, FLAG-mAng2 on coated mTie2-Fc; remark: listed apart in the source
Procedure: as §1

B1: variant(s) of VHH 00027 carrying A24V (VHH, name in Kabat numbering)
VHH: EVQLVESGGGLVQAGGSLRLSCAVSGFTLDDYAIGWFRQAPGKEREGVSSIRDNDGSTYYADSVKGRFTISSDNDKNTVYLQMNSLKPEDTAVYYCAAVPAGRLRFGEQWYPLYEYDAWGQGTLVTVSS
notes: not shown: C-terminal c-myc tag and His6 tag
[1]
  fold improvement (off-rate against VHH 00027): 2 fold

B2: variant(s) of VHH 00027 carrying F27L and L100iI (VHH)
VHH: B1 VHH with V24A, F27L, L113I
notes: also called L100il
[1]
  fold improvement (off-rate against VHH 00027): 9.4 fold

B3: VHH 28D10 (VHH, not shown: small tags and cut ends)
VHH: B1 VHH with V24A, S50C, N54S, L124Q
notes: Parental llama VHH; also called 028D10
[2]
  IC50: 2.1 nM
[3]
  IC50: 5.7 nM
[4]
  IC50: 5.7 nM
[5]
  IC50: 2.1 nM

B4: VHH 00919 (VHH, not shown: small tags and cut ends)
VHH: B1 VHH with A14P, V24A, S50A, D55G, D75S, K87R
[2]
  IC50: 0.7 nM
[4]
  IC50: 1.8 nM
[6]
  Kd: 1.6 nM
  koff: 0.0015 s⁻¹
  kon: 950000 M⁻¹ s⁻¹
[7]
  Kd: 3 nM
  koff: 0.0039 s⁻¹
  kon: 1.3e+06 M⁻¹ s⁻¹
[8]
  Kd: 0.54 nM
  koff: 0.0012 s⁻¹
  kon: 2.3e+06 M⁻¹ s⁻¹
[9]
  Kd: 10 nM
  koff: 0.005 s⁻¹
  kon: 500000 M⁻¹ s⁻¹

B5: VHH 10H02 (VHH)
VHH: EVQLVESGGGSVQAGGSLRLSCAASGFTFDDYAIGWFRQAPGKEREGVSCISSSDGSTNYADSVKGRFTISSDTAKNTVYLQMNSLKPEDTAVYYCTAVPATRRTPQMVDANMCWLAEYEYDYWGQGTQVTVSS
notes: also called 010H02; not shown: C-terminal c-myc tag and His6 tag
[10]
  IC50: 23.7 nM
[11]
  IC50: 2000 nM
[12]
  Kd: 3.6 nM
  koff: 0.021 s⁻¹
  kon: 5.7e+06 M⁻¹ s⁻¹
[13]
  Kd: 3.4 nM
  koff: 0.023 s⁻¹
  kon: 6.9e+06 M⁻¹ s⁻¹
[14]
  Kd: 11 nM
  koff: 0.026 s⁻¹
  kon: 2.5e+06 M⁻¹ s⁻¹
[15]
  hAng1/hAng2 ratio: 230
[16]
  IC50: 5.2 nM
[17]
  IC50: 21.4 nM
